Test results published in IntAct's records for PubMed 22327218.

The substances below were run against anm5_human PRMT5 (UniProt O14744).
Sequence of anm5_human PRMT5 (O14744 whole entry): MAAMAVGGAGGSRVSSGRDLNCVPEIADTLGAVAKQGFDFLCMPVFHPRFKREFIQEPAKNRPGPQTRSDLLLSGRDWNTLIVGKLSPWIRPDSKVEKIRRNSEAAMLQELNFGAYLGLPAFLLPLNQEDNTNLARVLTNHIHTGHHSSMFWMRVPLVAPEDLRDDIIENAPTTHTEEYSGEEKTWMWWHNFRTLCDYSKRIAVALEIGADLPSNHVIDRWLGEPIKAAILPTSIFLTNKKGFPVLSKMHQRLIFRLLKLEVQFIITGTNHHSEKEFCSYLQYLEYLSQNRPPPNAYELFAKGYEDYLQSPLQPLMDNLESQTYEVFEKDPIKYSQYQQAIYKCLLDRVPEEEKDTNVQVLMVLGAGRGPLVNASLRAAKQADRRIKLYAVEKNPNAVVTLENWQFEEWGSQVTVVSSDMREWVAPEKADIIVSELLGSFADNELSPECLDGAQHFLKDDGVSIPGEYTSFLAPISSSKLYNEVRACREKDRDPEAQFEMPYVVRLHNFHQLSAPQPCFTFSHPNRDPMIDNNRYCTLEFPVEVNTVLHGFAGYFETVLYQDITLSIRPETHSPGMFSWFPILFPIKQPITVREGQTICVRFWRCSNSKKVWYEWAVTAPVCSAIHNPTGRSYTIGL

Sequence of Transcription factor E2F1 (Homo sapiens), Q01094 R113K (Q01094 whole entry R113K): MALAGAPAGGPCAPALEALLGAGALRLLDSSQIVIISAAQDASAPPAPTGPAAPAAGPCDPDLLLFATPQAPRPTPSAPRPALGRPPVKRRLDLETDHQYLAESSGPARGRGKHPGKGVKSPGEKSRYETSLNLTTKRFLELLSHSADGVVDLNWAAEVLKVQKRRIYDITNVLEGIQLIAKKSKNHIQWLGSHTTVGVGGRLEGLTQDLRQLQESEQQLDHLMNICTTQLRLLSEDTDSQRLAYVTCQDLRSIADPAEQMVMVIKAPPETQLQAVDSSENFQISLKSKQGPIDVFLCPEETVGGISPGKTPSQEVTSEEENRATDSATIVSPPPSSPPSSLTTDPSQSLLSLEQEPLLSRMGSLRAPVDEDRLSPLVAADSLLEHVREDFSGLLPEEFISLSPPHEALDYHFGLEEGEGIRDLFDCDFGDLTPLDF
Sequence of Transcription factor E2F1 (Homo sapiens), Q01094 R111K (Q01094 whole entry R111K): as the sequence (Q01094 whole entry R113K) above, with R111K, K113R counted along it
Sequence of Transcription factor E2F1 (Homo sapiens), Q01094 R109K (Q01094 whole entry R109K): as the sequence (Q01094 whole entry R113K) above, with R109K, K113R counted along it

Effect of a mutation on the interaction, disrupting interaction:
Transcription factor E2F1 (Homo sapiens), Q01094 R109K
Transcription factor E2F1 (Homo sapiens), Q01094 R111K
Transcription factor E2F1 (Homo sapiens), Q01094 R113K
